Reference: article doi:10.1101/2023.01.17.524398

Biological target: Aplysia punctata ink toxin (APIT), recombinant (Aplysia punctata)
Test: MALDI mass spectrometry

## Aplysia punctata ink toxin (APIT), recombinant (enzyme)
  stoichiometry N: 2
